Experimental data taken from paper PMC7282669, “The hydrophobic effect characterises the thermodynamic signature of amyloid fibril growth” (PLoS Computational Biology, 2020).

Biological target: the molecule itself
Assay: ITC; crystals injected into water; heat of crystal dissolution taken as the negative of the heat of crystal growth; two temperatures

B1: GNNQQNY, a small fragment of the Sup35 protein (peptide)
peptide: GNNQQNY
notes: fragment of the Sup35 protein; Forms amyloid-like microcrystals; also called GNNQQNY peptide
binding result: binds
